# Measurements taken from PMC5365074 (Nature structural & molecular biology, 2017).
# T1: FLAG-IFNAR2 (human, UniProt P48551 27-515)
# T1 sequence: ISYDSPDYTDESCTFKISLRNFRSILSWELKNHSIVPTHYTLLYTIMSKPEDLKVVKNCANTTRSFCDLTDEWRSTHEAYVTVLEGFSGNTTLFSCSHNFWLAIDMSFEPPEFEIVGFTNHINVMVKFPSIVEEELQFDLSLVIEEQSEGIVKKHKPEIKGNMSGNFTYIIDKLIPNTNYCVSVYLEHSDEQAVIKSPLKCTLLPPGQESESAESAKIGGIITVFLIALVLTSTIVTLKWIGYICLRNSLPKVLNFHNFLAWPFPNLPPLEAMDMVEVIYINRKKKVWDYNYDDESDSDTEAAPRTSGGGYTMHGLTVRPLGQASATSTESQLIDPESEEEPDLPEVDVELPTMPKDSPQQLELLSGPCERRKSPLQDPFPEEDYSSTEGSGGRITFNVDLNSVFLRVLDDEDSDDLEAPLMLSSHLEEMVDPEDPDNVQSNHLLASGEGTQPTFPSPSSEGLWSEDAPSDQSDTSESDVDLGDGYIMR
# Target: T1, FLAG-IFNAR2
# Assay: co-IP
binder,measurement,value
"USP18 (no tag named), expressed in U6A cells (enzyme) MSKAFGLLRQICQSILAESSQSPADLEEKKEEDSNMKREQPRERPRAWDYPHGLVGLHNIGQTCCLNSLIQVFVMNVDFTRILKRITVPRGADEQRRSVPFQMLLLLEKMQDSRQKAVRPLELAYCLQKCNVPLFVQHDAAQLYLKLWNLIKDQITDVHLVERLQALYTIRVKDSLICVDCAMESSRNSSMLTLPLSLFDVDSKPLKTLEDALHCFFQPRELSSKSKCFCENCGKKTRGKQVLKLTHLPQTLTIHLMRFSIRNSQTRKICHSLYFPQSLDFSQILPMKRESCDAEEQSGGQYELFAVIAHVGMADSGHYCVYIRNAVDGKWFCFNDSNICLVSWEDIQCTYGNPNYHWQETAYLLVYMKMEC",fold enhancement of the co-precipitation upon expression of STAT2,≤ 10 fold
